Assay [1] deals with Recombinant human p65 protein (r-p65) with DDK tag (catalog number TP320780) (human) (UniProt Q04206). Briefly: plate ELISA, Scatchard analysis by the method of Friguet et al.
The target is the same in assay [2]. The assay is described as follows: plate ELISA, peptide 20-640 µM and r-p65, anti-DDK detection; at the lowest concentration evaluated. (In general: ELISA stands for enzyme-linked immunosorbent assay.)
Assay [3] has as its target T1, Recombinant human p65 protein (r-p65) with DDK tag (catalog number TP320780) (human, UniProt Q04206 1-551).
T1 construct: mature; also called r-p65-DDK; human r-p65; not shown: DDK tag
The assay is described as follows: score table: the mark stands in the column <3 of KD (uM).

Assay [4] deals with T1, Recombinant human p65 protein (r-p65) …. The assay is described as follows: score table: the mark stands in the column >3 of KD (uM).

T1 sequence (Q04206 whole entry): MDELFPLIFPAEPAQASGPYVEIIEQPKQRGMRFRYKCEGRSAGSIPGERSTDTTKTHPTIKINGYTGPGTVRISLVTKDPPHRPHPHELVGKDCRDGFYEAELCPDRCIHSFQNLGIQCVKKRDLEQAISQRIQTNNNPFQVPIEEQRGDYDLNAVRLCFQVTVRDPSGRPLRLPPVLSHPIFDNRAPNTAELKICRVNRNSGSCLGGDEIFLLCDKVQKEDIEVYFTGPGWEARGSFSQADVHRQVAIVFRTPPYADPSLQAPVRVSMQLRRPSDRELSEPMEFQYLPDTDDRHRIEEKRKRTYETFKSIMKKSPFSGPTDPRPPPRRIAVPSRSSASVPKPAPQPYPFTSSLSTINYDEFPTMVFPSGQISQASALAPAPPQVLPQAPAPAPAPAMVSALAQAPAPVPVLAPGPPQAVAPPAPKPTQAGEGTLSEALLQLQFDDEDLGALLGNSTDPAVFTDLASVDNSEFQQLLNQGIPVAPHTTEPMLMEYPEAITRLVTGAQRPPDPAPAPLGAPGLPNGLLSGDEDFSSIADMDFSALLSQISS
Recombinant human p65 protein (r-p65) with DDK tag (catalog number TP320780) (human), sequence (Q04206 whole entry): as above

Usually Kd stands for the equilibrium constant for the complex coming apart. Ac-EPAPLAPYG-NH2 [GA-2 (GILZ analog 2, as labelled in Examples 3 to 6)]: the Kd in assay [1] was 3240 nM. The percent bound r-p65 in assay [2] is over 25%.
With Ac-APKPYQPRG-NH2 [GA-1 (GILZ analog 1, as labelled in Examples 3 to 6)], the Kd in assay [1] stood at 2290 nM. Also, in assay [2], the percent bound r-p65 was over 25%.
For Ac-EPAPLAPYG-NH2 (also called Analog 3; GA-2) [PGA-2], in assay [3], the Kd is under 3000 nM.
For Ac-EPAPEQPDG-NH2 (also called Analog 8) [PGA-5], the Kd in assay [4] was over 3000 nM.
On the same count and under the same terms, to Ac-EPAPYQPEG-NH2 (also called Analog 14) [PGA-3] belongs over 3000 nM; to Ac-APKPYQPRG-NH2 (also called Analog 20; GA-1) [PGA-1], over 3000 nM; to Ac-EPAPESPQV-NH2 (also called Analog 7) [PGA-4], over 3000 nM.

The values above are taken from US20210060116A1 (published 2021).
